Source: the DeepSol protein solubility set

test: soluble on expression in E. coli; label from the status in PepcDB or PDB records

Row | Sequence | soluble on expression in E. coli
1 | MRIEVKLLPLKDNPILPFNYNYEVYSQILEKVNSIEPTIAKLLSSPHGFWTFSRIIVRKRKILPDKGIEILSDDVSLYISSSNEDIIRAIAEAVEKSPEFKIGELSFLVGDIKAIKVKELGKENVFSTLSPIVVRTVKFEGNKLRHWDLYPHDELFMDRLRKVMILRYSEVMGETPKDRDFTIEVLKFKPTRLMVGSSYIRGSLMVFRYAGSEEIARFGYENGFGEKTGLGFGMVKLIE | soluble
2 | MRILFVAAGSPATVFALAPLATAARNAGHQVVMAANQDMGPVVTGVGLPAVATTDLPIRHFITTDREGRPEAIPSDPVAQARFTGRWFARMAASSLPRMLDFSRAWRPDLIVGGTMSYVAPLLALHLGVPHARQTWDAVDADGIHPGADAELRPELSELGLERLPAPDLFIDICPPSLRPANAAPARMMRHVATSRQCPLEPWMYTRDTRQRVLVTSGSRVAKESYDRNFDFLRGLAKDLVRWDVELIVAAPDTVAEALRAEVPQARVGWTPLDVVAPTCDLLVHHAGGVSTLTGLSAGVPQLLIPKGSVLEAPARRVADYGAAIALLPGEDSTEAIADSCQELQAKDTYARRAQDLSREISGMPLPATVVTALEQLAHHHHHH | soluble
3 | MRILGLDLGTKTLGVALSDEMGWTAQGIETIKINEAEGDYGLSRLSELIKDYTIDKIVLGFPKNMNGTVGPRGEASQTFAKVLETTYNVPVVLWDERLTTMAAEKMLIAADVSRQKRKKVIDKMAAVMILQGYLDSLNLEHHHHHH | not soluble
4 | MRILIPFKANNPKSRLSSILSEEERKELARLMLLDVIDAAKPFGEIKVVCPSELDVEGVEVVVDTSDLNTTVNKVMDEAPLAVIMSDLPLLSEEVLKRFFETEGDVVVAPGRKGGTNMLLVRKRGFRVSYHFGSFFKHLEMARKMGMKAKIFDSFYSSVDIDDESDLLELMMHGSGKKSYEFLRKIGFSVSFEETPRLERRVFMQP | soluble
5 | MRINFEKANSNHINIIFSWLKEPFIQEFWDNTQAHKDDILNFINGRTEPSSYADGKYVYWIASGNGHPFAMLMTIQETSEDEIDDIKLINLSKTGHSYGIDYMIGDKNYFGIGYGARTLIEFIDFFIKEVDPKADTFLIDPASDNPRAKHVYIKAGFEYVADFLMSGDVSGAGKLHHLLIKRIGLIK | not soluble
6 | MRIPRIYHPISLENQTQCYLSEDAANHVARVLRMTEGEQLELFDGSNHIYPAKIIESNKKSVKVEILGRELADKESHLKIHLGQVISRGERMEFTIQKSVELGVNVITPLWSERCGVKLDAERMDKKIQQWQKIAIAACEQCGRNIVPEIRPLMKLQDWCAENDGALKLNLHPRAHYSIKTLPTIPAGGVRLLIGSEGGLSAQEIAQTEQQGFTEILLGKRVLRTETASLAAISALQICFGDLGEAAAAAALEHHHHHH | soluble
7 | MRIRIRVLSHFSSALGFDESSFSIGEGITFAELRSKLIEQFSAFVRPIEIGMYVNMKPVPDDYTMMDGDIVYVFPRSSTP | not soluble
8 | MRITIYTRNDCVQCHATKRAMENRGFDFEMINVDRVPEAAEALRAQGFRQLPVVIAGDLSWSGFRPDMINRLHPAPHAASA | soluble
9 | MRITQEQAEAIFCEDLKQFGKTVEQSVKVCLTDAQIAALVSFCYNVETQAFCKSTLLKKLNNGAYESVPAELQKWNKVGGKAIQGFVNRRAAEAGLWAKGSYVCFNTQRVETKNTIGLLKIETLAPMIGSCSGLGGLLVGNGPLPALWF | not soluble
10 | MRIVAVTDIHGNMASTVALANILKKIEAELLLIAGDITHFSGGEIAKQILEPLLKLGVRVLAVMGNCDGKDVPKVLDELGINVHNARVEVKKVGVVGFGGSSVTPFSTIWEFSEEEIYSSLKRNYRSGDIVLTHAPPYRTRIDKTFSGIHAGSKGLRKFIEEEQPPICICGHIHEARGIDKIGETLVVNPGPLSRRYYAVIDSETWEVKLERLLEHHHHHH | soluble
11 | MRIVTAAVMASTLAVSSLSHAAEVGSGDNWHPGEELTQRSTQSHMFDGISLTEHQRQQMRDLMQQARHEQPPVNVSELETMHRLVTAENFDENAVRAQAEKMANEQIARQVEMAKVRNQMYRLLTPEQQAVLNEKHQQRMEQLRDVTQWQKSSSLKLLSSSNSRSQMAGDPLEHHHHHH | not soluble
12 | MRKELVFVLLALFLCAGCNGNKKKMNGEHDLDAANITLDDHTISFYYNWYGNPSVDGEMKHWMHPIALAPGHSGDVGAISGLNDDIACNFYPELGTYSSNDPEIIRKHIRMHIKANVGVLSVTWWGESDYGNQSVSLLLDEAAKVGAKVCFHIEPFNGRSPQTVRENIQYIVDTYGDHPAFYRTHGKPLFFIYDSYLIKPAEWAKLFAAGGEISVRNTKYDGLFIGLTLKESELPDIETACMDGFYTYFAATGFTNASTPANWKSMQQWAKAHNKLFIPSVGPGYIDTRIRPWNGSTTRDRENGKYYDDMYKAAIESGASYISITSFNEWHEGTQIEPAVSKKCDAFEYLDYKPLADDYYLIRTAYWVDEFRKARSASEDVQLEHHHHHH | soluble
13 | MRKIGLLFITIFCLLACKNNSSRISLEGEIKGLTNDTLYLYGTDALYDRIDTIYAEKGKFSYNLNIDSTVIDTLTTAVLLINGHVEYPVFLDKGNQITIKGNIDDLSYLDINGNEPNTSLSLFMKEQRGLGSASDKMMQEKAETFIRQHNSSLASVYLLDKYFVQTPQPDYIKIKEITEAMTGALLDRPYIENISDYIDQLEKVTVGKSAPYFSLPNEKGEKLSRSAERFRNRYLLLNFWASWCDPQPEANAELKRLNKEYKKNKNFAMLGISLDIDREAWETAIKKDTLSWDQVCDFTGLSSETAKQYAILTLPTNILLSPTGKILARDIQGEALTGKLKELLKTEEKKTGKSIR | not soluble
14 | MRKIIVGAFVSLDGIMQAPGGPHEDPVGGFDHGGWAAPYFDETMGQAVDEMFSKPFDLLLGRKTYDIFAAHWPYAGPDDPIGPLFDRITKYVATRNPDLRLDWQNSRTLGSDPVAMLKKLKSEEGPDLLTQGSTDFLQTLFSNDLVDEMYISYFPVVLGKGKRLFGHGAMPMAMKLLGSKVSGTGVTANKYVRSGPVVTGSFEFEQPTEAELERRRKLS | soluble
15 | MRKIQVGVTGMTCAACSNSVEAALMNVNGVFKASVALLQNRADVVFDPNLVKEEDIKEEIEDAGFEAEILAEEW | soluble
16 | MRKLVVGSRRSKLALTQSQQFIDKLKAVEPNLEIEIKEIVTKGDRIVDKQLSKVGGKGLFVKEIQHELFEKNIDMAIHSLKDVPSVIPEGLTLGCIPDRELPFDAYISKTHTPLSQLPEGSIIGTSSLRRGAQILSKYPNLEIKWIRGNIDTRLEKLQTEDYDAIILAAAGLRRMGWSDDIVTSYLDRDTLLPAIGQGALGIECRSDDEELLTLLSKVHNDEVAKCVTAERTFLAEMDGSCQVPIAGYATISDQNEIEFTGLIMTPDGKERFEYTMNGTDPVELGKTVSNKLKEQGAYEIIKRLNEQH | not soluble
17 | MRKNVSDLEYTTWFAPVKPLGVQEGSLLLGVRNSFTKDWFRDHYLELLLAALRSLGAEHPQVEFQVLPAAQDALLLPNDPPPAPEAAAPTPKTKAAPTPPPSTPGDNRKTLNPKYTFENFVVGPNNNLAHAAALAVAESPGKAYNPLFIYGDVGLGKTHLMHAVGHYLAERFPEKRIEYVSTETFTNELINAIRDDKTTQFRNRYRSVDLLLVDDIQFLAGKERTQEEFFHTFNALYESNKQIILSSDRPPKDIQTLEGRLRSRFEWGLITDIQSPEYETRVAILKMNAEQGHITIPQEVLELIARQVTSNIRELEGALMRVVAFASLNNVPFSRAAAAKALSNVFAPQEAKVEMTDVLRQVAAHYGTTPDLIRGSGRARDIVVPRQVAQYLIRALTDHSLPEIGQFFGRDHSTVMHAVSKITEQMGKDPELAATVNTLRNRIQGKEEEEEVGALEHHHHHH | not soluble
18 | MRKPILAALTLAGLGLAQEFITIGSGSTTGVYFPVATGIAKLVNDANVGIRANARSTGGSVANINAINAGEFEMALAQNDIAYYAYQGCCIPAFEGKPVKTIRALAALYPEVVHVVARKDAGIRTVADLKGKRVVVGDVGSGTEQNARQILEAYGLTFDDLGQAIRVSASQGIQLMQDKRADALFYTVGLGASAIQQLALTTPIALVAVDLNRIQAIAKKYPFYVGFNIPGGTYKGVDVTTPTVAVQAMLIASERLSEETVYKFMKAVFGNLEAFKKIHPNLERFFGLEKAVKGLPIPLHPGAERFYKEAGVLK | soluble
19 | MRKWQCVVCGFIYDEALGLPEEGIPAGTRWEDIPADWVCPDCGVGKIDFEMIEIA | soluble
20 | MRLEIPNHTERFGVVRLHEVQRILELDSGRVRDESPAVGLRRLDDADLRDVLEQTAIVVPTRNERLKLLEGVLSGIPHEALILVASNSSPDRFQMERDLLEEFAHLTERPALIFHQKDPALAEALRAGGYPHPIGEDGLVRSGKAEGMILALVFAALSGRRYVGFIDADNYFPGAVWEYVRAYAAGFLMAKTPFAMVRILWRYKPKLTEDEGVVFRRYGRVSERNNRALNQLIGGVSGFETDVVKTANAGEHAMSLGLALRLPLASGYAVEPQELVSLLELYGGVFPLEDEEVLQHGVEIFQIETRNPALHENKGDEHIRDMLLACLATVYHSKLATEEVRQSVLEELQAAGALAPGEEPPPPVLYPPLSSLDLQAVRKALRGHFSRFRVP | soluble
21 | MRLEVFCEDRLGLTRELLDLLVLRGIDLRGIEIDPIGRIYLNFAELEFESFSSLMAEIRRIAGVTDVRTVPWMPSEREHLALSALLEALPEPVLSVDMKSKVDMANPASCQLFGQKLDRLRNHTAAQLINGFNFLRWLESEPQDSHNEHVVINGQNFLMEITPVYLQDENDQHVLTGAVVMLRSTIRMGR | soluble
22 | MRLFHTSDWHLGQNLHGQERDFEHACFLTWLLARLAERQPDVLLIAGDIFDTVNPPVKAQERLYDFIVNAHEQQPLLTIVMIAGNHDSGSRIELPAPLMRRLRTHALGRVMWLNDGVLDAERLLLPLPDANGDIKAWCLALPFLRPAEVTGPTLGDDYLRGIGRVHELLIDAANLKRQPGQALIAISHAHMAGGSVSEDSERSLIIGNAEALPASLFGPSITYVALGHLHKPQRVNGEERIRYSGSPIPLSFSEIGYQHQILEINCDGDTLTSVEPCLIPRAVNLQRLGPAPLADLLVQLKSLPDIDLLADPDRQPWLEVRVRLDEPQPDLRNQIETALQGKAVRLVRIGAEYAGKGSADGSDGEAGLIELDQLTPQELFSRAWQDNFGSEVDEQTLTDFATLLREVQQESEQP | not soluble
23 | MRLFTPEAMREADRKAVERGYPSLLLMEWAGMKAARVYLELFGKAPALVLAGKGNNGGDGLVLARHLLLEGVGVRVYAAGGQTGDALLALQALLAHGVEVRPLEEASFREGEVVVDALFGTGLKGPLTDFYAELVERVNRAGLPVLALDLPSGLPFSPHVRATATVAFAALKTPHLFQREACGKLYLAEIGLPKPLLEREDLPEVASPEALRPLLPRRPLTAHKGSVGRVGVLGGYQGEDLRYAGAPLLAALGAYRMGAGLVHLVAPEGTPLEPLEAVFHPVPSPALPPLKAEALAVGMGGGPWGRAWALKALEARLPTVLDADALHPEVAEAYRKAGVPAVLTPHAGEAGRLLGISPEEVAKDPLGAARALAERTGLAVVLKGNPTVVAEGERLSVNPTGNPALATGGTGDVLSGAIAALLAAGLRPFDAARLGVFLHGLAGDLLAEEKGVGLLAREVAEALPRARRLLQEGRVPPAFFPR | soluble
24 | MRLGICSHTLCPPIEGNIKQHLHNPMKEEEFNELKQNLDSYTPLLPESVTDYFMEKAGVVTSDQSVKKLVSLLAHKFVTDIAVSSFQYHRINQKAAQKDKRFAKEKKPTFQLVDLEKALEEVGISISRPHYYM | not soluble
